# In publication doi:10.1101/2022.05.14.491971:
# Target: Mab3862, antitoxin of the type 2 TA class of Mycobacterium abscessus (Mycobacterium abscessus (ATCC 19977))
# Assay: crystal structure
substance,measurement,value
"Mab3862, antitoxin of the type 2 TA class of Mycobacterium abscessus (natural protein)",stoichiometry N,2
